The numbers were not newly measured in paper PMC2820514, which cites them from elsewhere.

The target in the data set is CaMKII monomer (UniProt Q9UQM7).

Consider CaMKII monomer (from UniProt Q9UQM7), for which the dissociation constant (Kd) is 1300 nM.

Usually Kd stands for the concentration at which binding is half-saturated.
